# Test results taken from patent US6858578.
# Values joined by “and” are separate entries in the source; they are usually repeats but may differ in a detail not shown here. Equal entries are not always repeated.
# Molecular target: LDLR/TF chimeric protein with amino acids 1-374 of mature human LDLR fused to amino acids 20-698 of human transferrin (encoded by pEFBOS/LDLrTF1.S) (human)
# Assay: microplate assay: chimeric protein (13.3 nM) held by coated HTF-14, LDL 0.5-50 µg/ml, detected with sheep anti-human LDL; the signal at 50 µg/ml is taken as the maximum
# LDLR/TF chimeric protein with amino acids 1-374 of mature human LDLR fused to amino acids 20-698 of human transferrin (encoded by pEFBOS/LDLrTF1.S) (human), sequence (chain, as listed by the source mutant): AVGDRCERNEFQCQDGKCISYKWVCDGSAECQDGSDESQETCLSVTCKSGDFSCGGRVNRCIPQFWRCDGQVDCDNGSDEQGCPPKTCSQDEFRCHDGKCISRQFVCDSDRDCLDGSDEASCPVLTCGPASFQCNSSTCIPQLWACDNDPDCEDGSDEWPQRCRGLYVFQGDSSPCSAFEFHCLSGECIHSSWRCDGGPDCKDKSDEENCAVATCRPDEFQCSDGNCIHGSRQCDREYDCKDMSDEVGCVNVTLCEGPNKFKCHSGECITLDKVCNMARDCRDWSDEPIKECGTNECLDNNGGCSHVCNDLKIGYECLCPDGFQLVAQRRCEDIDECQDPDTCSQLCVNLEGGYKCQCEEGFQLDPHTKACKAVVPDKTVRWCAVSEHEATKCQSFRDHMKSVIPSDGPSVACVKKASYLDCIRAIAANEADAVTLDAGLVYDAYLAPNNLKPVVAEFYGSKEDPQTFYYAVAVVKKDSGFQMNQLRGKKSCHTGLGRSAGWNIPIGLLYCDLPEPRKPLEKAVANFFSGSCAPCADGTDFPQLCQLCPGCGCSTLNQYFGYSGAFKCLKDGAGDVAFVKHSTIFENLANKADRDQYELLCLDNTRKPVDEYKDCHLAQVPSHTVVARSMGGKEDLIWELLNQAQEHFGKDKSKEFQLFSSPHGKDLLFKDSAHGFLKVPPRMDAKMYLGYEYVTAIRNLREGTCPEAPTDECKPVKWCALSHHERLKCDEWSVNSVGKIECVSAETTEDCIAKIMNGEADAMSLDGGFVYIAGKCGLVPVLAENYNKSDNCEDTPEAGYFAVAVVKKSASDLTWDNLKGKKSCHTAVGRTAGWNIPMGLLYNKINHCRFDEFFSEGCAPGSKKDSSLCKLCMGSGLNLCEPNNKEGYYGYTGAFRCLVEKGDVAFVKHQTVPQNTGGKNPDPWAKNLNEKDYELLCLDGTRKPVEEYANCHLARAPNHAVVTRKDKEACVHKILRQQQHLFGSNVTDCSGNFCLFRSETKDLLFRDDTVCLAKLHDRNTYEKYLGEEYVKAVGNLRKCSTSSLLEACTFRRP
substance,measurement,value
"human LDL (low density lipoprotein particle carrying one molecule of apolipoprotein B-100), P04114 28-4563",EC50,1.6 µg/mL and 3.1 nM
